Laboratory results as given in publication PMC5458144 (2017).

Target: CRL4A-CRBN (Homo sapiens, UniProt Q96SW2)
Experiment: TR-FRET

Chain of CRL4A-CRBN (Q96SW2 whole entry, chain 1 of 4): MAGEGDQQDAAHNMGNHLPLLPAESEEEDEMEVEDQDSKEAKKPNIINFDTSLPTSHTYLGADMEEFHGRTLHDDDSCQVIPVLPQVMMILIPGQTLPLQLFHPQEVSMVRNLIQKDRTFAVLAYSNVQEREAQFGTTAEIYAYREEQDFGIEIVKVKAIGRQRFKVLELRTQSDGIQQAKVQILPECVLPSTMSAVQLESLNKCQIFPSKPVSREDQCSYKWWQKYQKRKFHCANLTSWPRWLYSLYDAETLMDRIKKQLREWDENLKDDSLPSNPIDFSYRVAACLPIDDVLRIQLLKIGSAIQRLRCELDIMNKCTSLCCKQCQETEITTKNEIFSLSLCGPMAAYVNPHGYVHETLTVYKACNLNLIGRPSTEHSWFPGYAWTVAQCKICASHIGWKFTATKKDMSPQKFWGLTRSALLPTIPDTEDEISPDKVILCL
Chain of CRL4A-CRBN (Q16531 2-1140, chain 2 of 4, further chain): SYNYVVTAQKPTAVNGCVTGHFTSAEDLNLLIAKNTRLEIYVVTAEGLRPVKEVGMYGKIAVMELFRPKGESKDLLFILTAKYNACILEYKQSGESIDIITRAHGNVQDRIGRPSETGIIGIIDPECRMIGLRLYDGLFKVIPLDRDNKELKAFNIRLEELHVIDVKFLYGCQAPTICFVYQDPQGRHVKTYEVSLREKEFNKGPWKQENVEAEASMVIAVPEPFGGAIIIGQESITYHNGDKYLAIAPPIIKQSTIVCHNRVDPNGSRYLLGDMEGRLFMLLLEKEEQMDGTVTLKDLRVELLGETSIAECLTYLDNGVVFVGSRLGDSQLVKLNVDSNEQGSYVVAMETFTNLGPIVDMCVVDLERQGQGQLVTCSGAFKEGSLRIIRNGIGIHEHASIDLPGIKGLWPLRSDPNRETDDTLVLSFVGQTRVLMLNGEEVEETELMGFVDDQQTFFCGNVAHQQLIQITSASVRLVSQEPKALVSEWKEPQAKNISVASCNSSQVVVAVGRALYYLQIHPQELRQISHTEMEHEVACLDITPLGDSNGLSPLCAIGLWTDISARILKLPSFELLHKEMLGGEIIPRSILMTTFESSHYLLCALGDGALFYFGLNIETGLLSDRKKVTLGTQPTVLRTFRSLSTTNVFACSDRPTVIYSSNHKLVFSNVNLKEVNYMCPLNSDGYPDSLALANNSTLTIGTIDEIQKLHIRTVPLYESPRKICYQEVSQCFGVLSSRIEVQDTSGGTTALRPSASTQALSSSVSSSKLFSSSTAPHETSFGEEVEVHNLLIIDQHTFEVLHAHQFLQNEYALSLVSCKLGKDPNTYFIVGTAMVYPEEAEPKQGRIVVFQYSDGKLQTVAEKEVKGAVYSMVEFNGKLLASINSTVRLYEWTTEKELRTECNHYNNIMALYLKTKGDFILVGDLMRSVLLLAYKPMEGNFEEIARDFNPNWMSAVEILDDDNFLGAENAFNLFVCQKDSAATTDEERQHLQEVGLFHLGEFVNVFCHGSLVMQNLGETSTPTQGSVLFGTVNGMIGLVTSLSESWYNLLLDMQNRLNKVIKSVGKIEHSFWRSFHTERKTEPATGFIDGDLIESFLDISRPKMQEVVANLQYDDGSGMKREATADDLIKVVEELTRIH
Chain of CRL4A-CRBN (Q13619 whole entry, chain 3 of 4, further chain): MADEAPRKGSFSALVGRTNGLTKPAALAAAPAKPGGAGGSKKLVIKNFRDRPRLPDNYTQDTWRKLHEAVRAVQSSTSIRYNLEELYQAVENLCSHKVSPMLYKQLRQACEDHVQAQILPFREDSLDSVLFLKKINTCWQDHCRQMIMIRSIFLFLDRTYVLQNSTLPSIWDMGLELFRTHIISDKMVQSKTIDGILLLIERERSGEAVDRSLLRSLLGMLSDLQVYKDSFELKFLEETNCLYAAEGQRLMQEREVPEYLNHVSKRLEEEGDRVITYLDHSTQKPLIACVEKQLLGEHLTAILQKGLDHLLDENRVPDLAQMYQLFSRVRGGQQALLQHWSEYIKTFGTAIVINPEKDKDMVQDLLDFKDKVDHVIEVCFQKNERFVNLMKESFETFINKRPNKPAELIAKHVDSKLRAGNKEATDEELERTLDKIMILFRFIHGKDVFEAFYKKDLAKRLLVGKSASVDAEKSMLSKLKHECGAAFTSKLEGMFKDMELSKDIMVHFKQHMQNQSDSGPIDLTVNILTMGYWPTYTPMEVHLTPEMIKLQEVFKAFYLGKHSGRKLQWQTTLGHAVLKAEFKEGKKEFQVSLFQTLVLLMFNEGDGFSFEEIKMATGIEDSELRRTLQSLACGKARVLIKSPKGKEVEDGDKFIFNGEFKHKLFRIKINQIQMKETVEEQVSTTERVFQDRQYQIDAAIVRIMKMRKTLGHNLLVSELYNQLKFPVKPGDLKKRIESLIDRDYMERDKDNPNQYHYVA
Chain of CRL4A-CRBN (P62877 2-108, chain 4 of 4, further chain): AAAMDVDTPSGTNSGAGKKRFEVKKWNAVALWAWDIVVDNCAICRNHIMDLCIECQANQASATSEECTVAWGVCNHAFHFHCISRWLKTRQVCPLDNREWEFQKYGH

- Kd: 107 nM
B1: ZFP91 (protein)
chain: PGETEEPRPPEQQDQEGGEAAKAAPEEPQQRPPEAVAAAPAGTTSSRVLRGGRDRGRAAAAAAAAAVSRRRKAEYPRRRRSSPSARPPDVPGQQPQAAKSPSPVQGKKSPRLLCIEKVTTDKDPKEEKEEEDDSALPQEVSIAASRPSRGWRSSRTSVSRHRDTENTRSSRSKTGSLQLICKSEPNTDQLDYDVGEEHQSPGGISSEEEEEEEEEMLISEEEIPFKDDPRDETYKPHLERETPKPRRKSGKVKEEKEKKEIKVEVEVEVKEEENEIREDEEPPRKRGRRRKDDKSPRLPKRRKKPPIQYVRCEMEGCGTVLAHPRYLQHHIKYQHLLKKKYVCPHPSCGRLFRLQKQLLRHAKHHTDQRDYICEYCARAFKSSHNLAVHRMIHTGEKPLQCEICGFTCRQKASLNWHMKKHDADSFYQFSCNICGKKFEKKDSVVAHKAKSHPEVLIAEALAANAGALITSTDILGTNPESLTQPSDGQGLPLLPEPLGNSTSGECLLLEAEGMSKSYCSGTERVSLMADGKIFVGSGSSGGTEGLVMNSDILGATTEVLIEDSDSAGP
modifications: lenalidomide
